Test results as given in the supplement of paper PMC10567573.

B1: FAM189A2 (parent)
chain: VAAALRYLQIFATRRSCIDESQIS
B2: PTPN9 (parent)
chain: ILFSLPPALDWDSVHVPGPHAMTI

Variants of: B1
Experiment: protein stability index of a GFP-peptide fusion (GPS, HEK-293T) (PSI 1-6); higher = more stable
Settings: c terminus: a fixed tail appended
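Also: lentivirally expressed fusions sorted by FACS into six bins by GFP to DsRed ratio, PSI derived from sequencing read proportions per bin multiplied by bin number.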

Protein stability index of substitutions, site by site:
S21: R 2.78; T 2.03; W 2.67; Y 4.49
Q22: C 4.63; D 2.32; E 2.15; F 2.04; G 3; H 2.61; K 2.53; N 1.77; P 2.26; S 2.22; T 1.07; V 2.87; W 3.61; Y 1.16
I23: A 1.24; C 1.73; D 1.77; E 2.76; F 2.9; G 1.52; H 1.69; K 1.94; L 1.61; M 1.35; N 3.01; P 2.46; Q 1.88; R 1.91; S 1.84; T 2.18; W 1.87; Y 3.27
S24: A 2.76; C 3.79; E 1.52; F 3.22; G 2.54; H 2.29; I 2.9; K 1.16; M 2.07; P 4.3; Q 2.04; R 3.04; T 2.85; Y 1.78

Variants of: B2
Experiment: as above
Settings: c terminus: a fixed tail appended

Protein stability index: each site, then its substitutions
I1: A 2.03; C 1.64; D 2.17; E 1.71; F 1.76; G 2.6; H 1.56; K 2.24; L 1.85; M 1.7; N 1.8; P 1.93; Q 1.7; R 2.17; S 1.99; T 2.28; V 3.38; W 1.93; Y 2.41
L2: A 2.12; C 3.86; D 1.26; E 2.29; F 2.06; G 1.68; H 2.3; I 3.33; K 2.73; M 3.37; N 2.6; P 1.93; Q 2.47; R 1.7; T 2.62; V 2.54; W 2.54
F3: A 1.1; C 2.62; D 1.77; E 1.87; H 2.03; I 2.7; K 1.95; L 4.01; M 1.21; N 1.83; P 2.27; Q 3.1; R 2.25; S 1.49; T 2.38; W 1.61; Y 2.21
S4: A 2.31; D 2.38; E 1.75; F 2.61; G 2.46; H 3.16; I 3.06; K 1.98; L 2.55; M 3.28; N 2.5; P 2.01; Q 3.13; R 2.6; T 2.17; V 2.49; W 2.79
L5: C 2.26; D 2.43; E 1.47; F 4.35; H 1.76; I 1.33; K 2.25; M 2.3; N 1.32; Q 1.47; R 2.93; S 2.25; T 2.99; V 3.76; W 2
P6: A 3.2; C 2.37; F 1.95; G 1.32; I 3.44; K 1.97; L 4.02; M 1.89; Q 2.46; R 3.66; W 2.15; Y 2.91
P7: A 1.87; C 2.03; D 1.01; E 2.43; F 3.57; H 4.13; I 2.49; M 1.68; N 2.98; Q 2.33; R 2.18; V 4.23
A8: C 3.81; D 1.92; F 3.41; G 2.36; H 2.5; I 1.81; K 2.87; M 4.44; N 2.04; Q 3.82; R 2.43; S 3.4; T 3.32; W 2.68
L9: A 2.29; C 2.52; D 1.83; E 1.93; F 2.33; G 3.71; I 1.96; K 2.63; M 2.52; N 2.8; R 2.07; S 3.08; T 3.24; W 4.62; Y 4.25
D10: A 2.86; E 1.63; F 2.68; G 2.28; H 3.79; I 2.2; K 3.67; L 2.22; M 3.42; N 1.73; T 2.95; V 2.05; W 1.9
W11: A 3.48; C 3.67; D 1.75; E 1.57; F 3.1; G 2.23; H 2; I 3.5; L 2.72; M 2.73; N 2.26; P 2.41; Q 2.27; R 2.11; S 1.9; T 2.23; V 2.38; Y 3.05
D12: A 3.66; C 2.75; G 1.97; H 2.07; I 4.7; M 2.88; N 2.5; P 4.93; Q 1.88; S 3.29; T 2.37; W 2.79
S13: A 1.88; D 2.79; G 2.02; I 3.25; K 2.36; L 2.65; M 2.1; N 1.81; P 2.4; Q 2.06; R 3.77; T 2.42; V 2.03; Y 3.24
V14: C 2.02; D 1.5; E 1.95; F 4.29; G 2.1; H 2.43; I 2.09; K 1.66; L 3.32; M 3.43; N 2.41; Q 2.57; R 2.75; S 2.17; T 2.38; Y 2.26
H15: A 3.31; C 2.36; D 2.08; E 2; F 2.99; G 2.83; I 2.88; K 2.48; L 4.13; P 3.2; Q 1.81; R 1.44; S 1.85; T 2.94; V 3.57; Y 3.15
V16: A 1.93; C 3.24; D 2.27; E 1.38; F 2.42; G 1.99; H 2.2; I 3.19; K 2.54; L 2.68; M 3.21; N 1.74; Q 1.81; R 2.68; S 3.71; T 3.33; W 2.95
P17: A 2.78; C 1.49; D 2.21; E 2.47; F 3.17; G 1.94; H 1.42; I 2.67; K 2.49; L 2.79; M 3.11; N 2.71; Q 2.94; R 2.87; S 2.82; T 2.02; W 4.48
G18: A 3.84; C 1.85; D 1.85; E 2.12; H 2.69; I 3.29; K 1.61; L 4.77; M 2.48; N 2.76; Q 3.62; R 2.19; S 2.4; V 2.36; W 3.41
P19: A 2.77; C 2.95; D 2.1; E 2.35; F 3.89; G 2.97; H 2.46; I 2.37
